This series concerns the molecule itself. Description: SEC. (In general: In gel filtration, larger molecules generally elute earlier.)

“And” between values parts separate entries of the source, which are not always exact repeats. Identical values can stand only once.

B1: human diacylglycerol O-acyltransferase-1 (enzyme, UniProt O75907 1-488, looked up)
chain: MGDRGSSRRRRTGSRPSSHGGGGPAAAEEEVRDAAAGPDVGAAGDAPAPAPNKDGDAGVGSGHWELRCHRLQDSLFSSDSGFSNYRGILNWCVVMLILSNARLFLENLIKYGILVDPIQVVSLFLKDPYSWPAPCLVIAANVFAVAAFQVEKRLAVGALTEQAGLLLHVANLATILCFPAAVVLLVESITPVGSLLALMAHTILFLKLFSYRDVNSWCRRARAKAASAGKKASSAAAPHTVSYPDNLTYRDLYYFLFAPTLCYELNFPRSPRIRKRFLLRRILEMLFFTQLQVGLIQQWMVPTIQNSMKPFKDMDYSRIIERLLKLAVPNHLIWLIFFYWLFHSCLNAVAELMQFGDREFYRDWWNSESVTYFWQNWNIPVHKWCIRHFYKPMLRRGSSKWMARTGVFLASAFFHEYLVSVPLRMFRLWAFTGMMAQIPLAWFVGRFFQGNYGNAAVWLSLIIGQPIAVLMYVHDYYVLNYEAPAAEA
The stoichiometry N is the number of molecules, sites or subunits per partner or assembly. B1: the “stoichiometry N” value is 2 and 4.

(Values after article doi:10.1101/2020.01.06.896332 (bioRxiv, 2020).)
